Test results: patent US20260234276A1 (DOMAIN THERAPEUTICS, published 2026)
Where “and” joins values, the source holds several entries; their conditions need not be identical. Identical values can stand only once. Values belong to the binder of their own block, whether it stands above or below them.

How the values were obtained:
pm8 = pm8 (human, sulfated tyrosines at Y15, Y16 and Y17); test: ELISA on coated peptide [cont.]
Method in brief: (§1)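 Peptides coated at 500 ng/mL in carbonate/bicarbonate buffer; anti-CCR8 mAbs applied at 1 μg/mL and a 1/10 dilution for 90 min at room temperature. After washing, TMB substrate was developed for 15 min and OD read as a measure of mAb reactivity.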

pm6 = pm6 (human, sulfated tyrosines at Y16 and Y17); test: ELISA on coated peptide [cont.]
Sequence of pm6 (human, sulfated tyrosines at Y16 and Y17) (peptide, as listed by the source): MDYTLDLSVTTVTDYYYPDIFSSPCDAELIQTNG
Method in brief: as §1

pm3 = pm3 (human, sulfated tyrosine at Y17); test: ELISA on coated peptide [cont.]
Sequence of pm3 (human, sulfated tyrosine at Y17) (peptide, as listed by the source): as above
Method in brief: as §1

pm5 = pm5 (human, sulfated tyrosines at Y15 and Y17); test: ELISA on coated peptide [cont.]
Sequence of pm5 (human, sulfated tyrosines at Y15 and Y17) (peptide, as listed by the source): as above
Method in brief: as §1

human CCR8 [1] = target: T1, human CCR8 (human, UniProt P51685 1-355); test: flow cytometry, hCCR8 transfected CHOK1 cells
T1 construct: the cells are named under assay; also called hCCR8

human CCR8 [2] = target: T1, human CCR8; test: cell-based or functional assay
human CCR8 [3] = target: T1, human CCR8; test: cell-based or functional assay; remark: listed apart in the source
human CCR8 [4] = target: T1, human CCR8; test: competition flow cytometry on hCCR8 transfected CHO cells; blocked ligand CCL1-AF647 [cont.]
human CCR8 [5] = target: T1, human CCR8; test: flow cytometry, human activated T cells pre-incubated with 200 nM hCCL1
Experimental: (§2) Briefly, 1·10⁵ cells per well in a 96 well plate were incubated with a dilution of unconjugated anti-CCR8 mAb at 10 μg/mL then diluted at 1/3.33, 4 dilution points (during 30 min at 4° C.). […] To determine EC50 value, 8 concentrations of anti-CCR8 mAb were tested. Unbound antibodies were washed away with PBS (Invitrogen by Thermofisher Scientific, Illkirch-Graffenstaden, France) supplemented by 2% Fetal Bovine Serum (Invitrogen by Thermofisher Scientific, Illkirch-Graffenstaden, France) and 2 mM EDTA (Invitrogen by Thermofisher Scientific, Illkirch-Graffenstaden, France). Subsequently, cells are centrifuged (5 min at 400 g) and bound antibody is detected with F(ab′)₂-Goat anti-Mouse IgG (H+L) Cross-Adsorbed Secondary Antibody, Alexa Fluor 488 (dilution 1/500) (Invitrogen by Thermofisher Scientific, Illkirch-Graffenstaden, France) or with F(ab′)₂-Goat anti-Human IgG Fc Secondary Antibody, PE (Invitrogen by Thermofisher Scientific, Illkirch-Graffenstaden, France) (dilution 1/1000) at 4° C. for 30 min. Detection reagent is washed away and cells are centrifuged (5 min at 400 g) and resuspended in 30 μL PBS. Bound detection antibody is quantified on a MacsQuant16 (Miltenyi, Gladbach, Germany) (B1 or B2 channel, 5000 events per acquisition).
(§3) Binding characteristics of anti-CCR8 mAb cellular reactivity was further investigated by testing their binding to activated T cells.

human CCR8 [6] = target: T1, human CCR8; test: flow cytometry, human activated T cells
Experimental: as §2, §3

human CCR8 [7] = target: T1, human CCR8; test: competition HTRF on HEK-293 cells with hCCR8; blocked ligand CCL1-AF647 [cont.]
human CCR8 [8] = target: T1, human CCR8; test: cell-based or functional assay; remark: listed apart in the source
human CCR8 [9] = target: T1, human CCR8; test: flow cytometry, hCCR8 transfected CHOK1 cells; remark: listed apart in the source
Experimental: as §2
EC50 values were not constantly determined in the same experiments.

human CCR8 [10] = target: T1, human CCR8; test: flow cytometry, HUT78 cells (native CCR8)
human CCR8 [11] = target: T1, human CCR8; test: cell-based or functional assay; remark: listed apart in the source

Sequence of pm8 (human, sulfated tyrosines at Y15, Y16 and Y17) (peptide, as listed by the source): as above

binding result (pm8): binds
binding result (pm6): binds
binding result (pm3): binds
binding result (pm5): binds
% positive cells (human CCR8 [1]): 72.8%
MFI fold change to isotype ctrl (human CCR8 [1]): 6.32 fold
IC50 (Gi2 BRET, pH 6.5) (human CCR8 [2]): 0.021 µg/ml and 0.143 nM
IC50 (Gi2 BRET, pH 7.4) (human CCR8 [2]): 0.163 nM and 0.024 µg/ml
hCCL1 (100 nM) residual response, Protocol #2, mAb 0.08 µg/mL (human CCR8 [3]): 81%
hCCL1 (100 nM) residual response, Protocol #2, mAb 0.4 µg/mL (human CCR8 [3]): 69%
hCCL1 (100 nM) residual response, Protocol #2, mAb 10 µg/mL (human CCR8 [3]): 44%
hCCL1 (100 nM) residual response, Protocol #3, mAb 0.05 µg/mL (human CCR8 [3]): 77%
hCCL1 (100 nM) residual response, Protocol #3, mAb 0.5 µg/mL (human CCR8 [3]): 57%
hCCL1 (100 nM) residual response, Protocol #3, mAb 5 µg/mL (human CCR8 [3]): 49%
IC50 (read off the curve) (human CCR8 [4]): ~1 µg/mL
B1: 3-5 (antibody, V domains shown)
VH: EVQLLESGGGLVQPKGSLKLSCAASGFTFNPYAMNWVRQAPGRGLEWVARIRSKSNNYATYYADSVKDRFTISRDDSQDMLYLQMNNLKTEDTAMYYCVRGREAYYRYDGDYYAMDYWGQGTSVTVSS
VL: DIVMTQAAPSVPVTPGESVSISCRSSKSLLHSNGNTYLYWFLQRPGQSPQLLIYRMSNLASGVPDRFSGSGSGTAFTLRISRVEAEDVGVYYCMQHLEYPFTFGSGTKLEIK

% of labelled cells (human CCR8 [5]): 54%
% of labelled cells (human CCR8 [6]): 63%
IC50 (Gi2 BRET, pH 6.5) (human CCR8 [2]): 0.018 µg/ml and 0.12 nM
IC50 (Gi2 BRET, pH 7.4) (human CCR8 [2]): 0.02 µg/ml and 0.134 nM
IC50 (read off the curve) (human CCR8 [7]): ~0.02 µg/mL
ADCC % Max lysis, NK cells Donor 3 (human CCR8 [8]): 16%
ADCC % Max lysis, NK cells Donor 4 (human CCR8 [8]): 19%
ADCC EC50, NK cells Donor 3 (human CCR8 [8]): 349 pM
ADCC EC50, NK cells Donor 4 (human CCR8 [8]): 1910 pM
hCCL1 (100 nM) residual response, Protocol #2, mAb 0.08 µg/mL (human CCR8 [3]): 85%
hCCL1 (100 nM) residual response, Protocol #2, mAb 0.4 µg/mL (human CCR8 [3]): 94%
hCCL1 (100 nM) residual response, Protocol #2, mAb 10 µg/mL (human CCR8 [3]): 60%
hCCL1 (100 nM) residual response, Protocol #3, mAb 0.05 µg/mL (human CCR8 [3]): 93%
hCCL1 (100 nM) residual response, Protocol #3, mAb 0.5 µg/mL (human CCR8 [3]): 85%
hCCL1 (100 nM) residual response, Protocol #3, mAb 5 µg/mL (human CCR8 [3]): 62%
EC50 (human CCR8 [9]): 0.1 nM
% of labelled cells (human CCR8 [10]): 93%
Top plateau value (% of hCCL1 100 nM) with 5 µg/mL mAb, Protocol #3 (human CCR8 [11]): 794%
B2: 3-82 (antibody, human IgG1, kappa, V domains shown)
VH: QVQLVESGGGVVQPGRSLRLSCAASGFTFSNYRMHWVRQAPGKGLEWIAVIKVKSDNYGANYADSVKGRFTISRDNSKNTLYLQMNSLRAEDTAVYYCSSPTYPGSSGFAYWGQGTLVTVSS
VL: DIQMTQSPSSLSASVGDRVTITCRASQDISNYLNWYQQKPDGTVKLLIYYTSRLHTGVPSRFSGSGSGTDYTLTISNLQQEDIATYFCQQGNKFPPTFGGGTKVEINR
notes: humanized, human IgG1 kappa
